This data set deals with ATP. Briefly: switch fluorescence ratio, 500 uM ATP over buffer (Cy3 cluster intensity, sum of 5 cycles each) (fold (ratio)); higher = stronger signal-on switching upon ATP binding; sequences stand for … in TCGTCGGCAGCGTCAGATGTGTATAAGAGACAGTTTTTTTTTTTTTTTTTTTTTTTTT…TC. The conditions noted are these: aptamer strand: ATP DNA aptamer (quencher-CACCTGGGGGAGTATTGCGGAGGAAGG + anchor), 100 nM annealed; ATP concentration: 500 uM. The procedure, abridged: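 The fluorescence ratio divides summed target-cycle Cy3 intensity by summed buffer-cycle Cy3 intensity for each cluster and is averaged per switch-domain sequence. Cy3-labelled switching-strand clusters on a modified Illumina MiSeq flow-cell were annealed to 100 nM quencher-labelled ATP aptamer, then imaged in selection buffer and again after 15 min with 500 uM ATP at 22 °C. Five such cycles were run, with NaOH stripping and re-annealing between them, and clusters outside 100-1000 RFU were excluded.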

The values that follow come from the supplement of paper PMC10126150.

± gives the standard deviation of the averaged measurements.
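Note: ATP exposure 15 min at 22 °C before imaging.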

As for TTGGAGGGCT, the switch fluorescence ratio was found to be 0.978 ± 0.0032. For TTGGAGTACT the value was 1.09 ± 0.24; for TTGGAGTATA, 1.93 ± 0.28; for TTGGAGTTGG, 0.976 ± 0.043. The value for TTGGATACCT was 1.05 ± 0.13. The value for TTGGATACGT was 1.03 ± 0.091; that for TTGGATAGTT was 1.09 ± 0.16; that for TTGGATCAAC was 1.04 ± 0.051.

As for TTGGATGCCT, the switch fluorescence ratio was determined as 1.01 ± 0.047. The value for TTGGATGTGG was 1.02 ± 0.022; that for TTGGATTATG was 1.01 ± 0.012. The value for TTGGATTCAT was 0.995 ± 0.016; that for TTGGATTGAC was 1.06 ± 0.025; that for TTGGCAAATG was 0.988 ± 0.025. The value for TTGGCAGGGA was 0.998 ± 0.018. As to TTGGCATACG, the switch fluorescence ratio is 1.06 ± 0.034.

Take TTGGCATACT: the switch fluorescence ratio came out at 2.64 ± 2.2.

Consider TTGGCATATG, for which the switch fluorescence ratio was determined as 1.07 ± 0.085.

TTGGCATCAC: the switch fluorescence ratio is 1.06 ± 0.045.

For TTGGCCGGAG, the switch fluorescence ratio stood at 1.001 ± 0.0084.

On to TTGGCCGGGT, for which the switch fluorescence ratio is 1.042 ± 0.0059.

For the sequence TTGGCCTAAA, the switch fluorescence ratio turned out to be 0.954 ± 0.04. The value for TTGGCCTCGA was 1.01 ± 0.039; that for TTGGCCTTAG was 0.972 ± 0.015. The value for TTGGCGAGGG was 1.008 ± 0.0081; that for TTGGCGGCTT was 1.02 ± 0.032; that for TTGGCGGGAC was 0.9819 ± 0.0036.

For the sequence TTGGCGGGCA, the switch fluorescence ratio was 0.998 ± 0.027.

Consider TTGGCGTAAG, for which the switch fluorescence ratio is 1.03 ± 0.045. For TTGGCGTATT the value was 1.01 ± 0.071; for TTGGCGTCCG, 0.988 ± 0.047; for TTGGCTAATT, 1 ± 0.034. The value for TTGGGAAGTA was 0.985 ± 0.016.

Regarding TTGGGACGGT, the switch fluorescence ratio is 0.9972 ± 0.0076. For TTGGGAGGAG the value was 1.01 ± 0.025; for TTGGGAGGCG, 0.97 ± 0.039; for TTGGGATGTG, 0.986 ± 0.053. The value for TTGGGATTAG was 1.01 ± 0.029; that for TTGGGCATTT was 1.05 ± 0.089. The value for TTGGGCCCAA was 1 ± 0.041; that for TTGGGCCGGG was 0.991 ± 0.02; that for TTGGGCCTGA was 1.002 ± 0.0032.

As to TTGGGCGCAG, the switch fluorescence ratio came out at 0.967 ± 0.019.

Take TTGGGCGTGT: the switch fluorescence ratio was found to be 0.987 ± 0.021.

As for TTGGGCTAGG, the switch fluorescence ratio is 1 ± 0.0054. For TTGGGCTTTT the value was 0.996 ± 0.017. For TTGGGGAAAC the value was 0.99 ± 0.029. In the case of TTGGGGACGA, the switch fluorescence ratio stood at 0.997 ± 0.032. For TTGGGGACTT the value was 1.02 ± 0.07. The value for TTGGGGAGCT was 1.04 ± 0.014; that for TTGGGGATAA was 1.07 ± 0.09; that for TTGGGGATAG was 1.11 ± 0.17. For TTGGGGCCAG, the switch fluorescence ratio is 1.09 ± 0.12.

Turning to TTGGGGCCGT, the switch fluorescence ratio amounted to 1.04 ± 0.047. For TTGGGGCTTA the value was 1.03 ± 0.038; for TTGGGGCTTT, 1.02 ± 0.056; for TTGGGGGAGA, 1.02 ± 0.038. With TTGGGGGAGG, the switch fluorescence ratio came out at 0.989 ± 0.021.

Take TTGGGGGATA: the switch fluorescence ratio stood at 1.09 ± 0.24. For TTGGGGGG the value was 1.004 ± 0.0069. For TTGGGGGGGA the value was 1.02 ± 0.13. Regarding TTGGGGGGGC, the switch fluorescence ratio came to 0.997 ± 0.039. For TTGGGGGTCT the value was 0.968 ± 0.044; for TTGGGGTAGA, 1.05 ± 0.031.

As to TTGGGGTATA, the switch fluorescence ratio turned out to be 1.03 ± 0.055.

Consider TTGGGGTATG, for which the switch fluorescence ratio stood at 1.01 ± 0.012. For TTGGGGTT the value was 0.9662 ± 0.0019; for TTGGGGTTTA, 1.03 ± 0.026. For the sequence TTGGGTAATG, the switch fluorescence ratio was 1.01 ± 0.027.

As for TTGGGTACAT, the switch fluorescence ratio is 1.02 ± 0.011. For TTGGGTACGT the value was 1.02 ± 0.026; for TTGGGTAGCC, 1.03 ± 0.032; for TTGGGTAGGA, 1.03 ± 0.04.

In the case of TTGGGTATAA, the switch fluorescence ratio came to 0.989 ± 0.03. The value for TTGGGTATAT was 0.979 ± 0.037; that for TTGGGTATGC was 0.99 ± 0.046. The value for TTGGGTCCGG was 1.03 ± 0.038; that for TTGGGTCGTT was 0.994 ± 0.014. The value for TTGGGTCTGG was 0.965 ± 0.02. Take TTGGGTGAGC: the switch fluorescence ratio amounted to 0.994 ± 0.024. TTGGGTGGC: the switch fluorescence ratio was determined as 0.999 ± 0.011. TTGGGTGTGG: the switch fluorescence ratio was determined as 1.01 ± 0.037. Turning to TTGGGTTCAC, the switch fluorescence ratio was 0.988 ± 0.01. The value for TTGGGTTGGC was 1.02 ± 0.043.

Turning to TTGGGTTGGT, the switch fluorescence ratio came out at 1.01 ± 0.049. The value for TTGGTAAAGA was 1 ± 0.013. For TTGGTAAATG the value was 0.999 ± 0.012; for TTGGTAATGG, 1.04 ± 0.051. The value for TTGGTACGGA was 0.986 ± 0.019; that for TTGGTAGAAA was 0.982 ± 0.024; that for TTGGTAGCAA was 1.81 ± 0.41. With TTGGTAGTTT, the switch fluorescence ratio turned out to be 1.022 ± 0.0061.

TTGGTATAA: the switch fluorescence ratio was 0.999 ± 0.021. With TTGGTATCTT, the switch fluorescence ratio was 0.999 ± 0.025. As for TTGGTATGAC, the switch fluorescence ratio came to 0.988 ± 0.076. The value for TTGGTATGAG was 0.997 ± 0.013; that for TTGGTATTTT was 0.989 ± 0.018; that for TTGGTCCGTG was 1.01 ± 0.071. The value for TTGGTCCGTT was 1.02 ± 0.045. The value for TTGGTGAACG was 0.989 ± 0.024. For TTGGTGATGA, the switch fluorescence ratio came to 1.02 ± 0.023. For TTGGTGATTG, the switch fluorescence ratio worked out at 0.976 ± 0.014. For TTGGTGCCGC the value was 0.975 ± 0.017. For TTGGTGCGGA the value was 0.975 ± 0.056; for TTGGTGCTGG, 1.01 ± 0.027; for TTGGTGGGGG, 0.989 ± 0.023. As for TTGGTGTGGC, the switch fluorescence ratio came out at 0.9967 ± 0.0092. For TTGGTGTGTA the value was 1.002 ± 0.0089; for TTGGTGTGTG, 0.958 ± 0.022; for TTGGTGTTAG, 0.973 ± 0.031. The value for TTGGTGTTGC was 0.9916 ± 0.0057. The value for TTGGTGTTTA was 1.01 ± 0.022; that for TTGGTTAAGA was 0.999 ± 0.04. With TTGGTTACGG, the switch fluorescence ratio was 1.014 ± 0.0041. The value for TTGGTTAGCC was 0.975 ± 0.078; that for TTGGTTATCT was 1.01 ± 0.035. For TTGGTTCATG the value was 0.998 ± 0.015; for TTGGTTCATT, 1.01 ± 0.021; for TTGGTTGAAT, 0.998 ± 0.011. For the sequence TTGGTTTAAT, the switch fluorescence ratio was determined as 1.01 ± 0.034.
